Columns and labels:
[1] = target: c-Src SH2; assay: SH2 binding enrichment of the phosphorylated peptide, bacterial display (enrichment ratio); higher = better substrate or ligand; peptides without Tyr show the background
[2] = target: Grb2 SH2 (UniProt P62993); assay: as above
[3] = target: SHP2-C SH2; assay: as above
[4] = system: c-Abl (mouse); assay: phosphorylation enrichment, bacterial display (enrichment ratio); higher = better substrate or ligand; peptides without Tyr show the background
[5] = target: Jak2 (UniProt O60674); assay: as above
[6] = target: FGFR3 (UniProt P22607); assay: as above
[7] = target: EPHB2 (UniProt P29323); assay: as above
[8] = system: c-Src; assay: as above
[9] = target: EPHB1 (UniProt P54762); assay: as above
[10] = target: Fyn (UniProt P06241); assay: as above
[11] = target: FGFR1 (UniProt P11362); assay: as above
[12] = target: Hck (UniProt P08631); assay: as above
[13] = system: AncSZ; assay: as above
[14] = target: MERTK (UniProt Q12866); assay: as above
[15] = target: Fes (UniProt P07332); assay: as above
[16] = system: Fer (mouse); assay: as above
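Wherever SH2 binding enrichment of the phosphorylated peptide, bacterial display is given: peptide library displayed on the E. coli surface as eCPX fusions, selected cells deep-sequenced, score is each peptide's frequency after selection divided by its frequency in the input.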
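Wherever phosphorylation enrichment, bacterial display is given: 11-residue human phosphosite peptides and single-mutation variants displayed on the E. coli surface, counted by deep sequencing, each peptide's frequency after selection divided by its frequency in the unselected input library; frequency after pTyr selection over input frequency; kinase dosed for 20-30% of maximal phosphorylation in three min.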

Sequence of Hck (P08631 whole entry, looked up): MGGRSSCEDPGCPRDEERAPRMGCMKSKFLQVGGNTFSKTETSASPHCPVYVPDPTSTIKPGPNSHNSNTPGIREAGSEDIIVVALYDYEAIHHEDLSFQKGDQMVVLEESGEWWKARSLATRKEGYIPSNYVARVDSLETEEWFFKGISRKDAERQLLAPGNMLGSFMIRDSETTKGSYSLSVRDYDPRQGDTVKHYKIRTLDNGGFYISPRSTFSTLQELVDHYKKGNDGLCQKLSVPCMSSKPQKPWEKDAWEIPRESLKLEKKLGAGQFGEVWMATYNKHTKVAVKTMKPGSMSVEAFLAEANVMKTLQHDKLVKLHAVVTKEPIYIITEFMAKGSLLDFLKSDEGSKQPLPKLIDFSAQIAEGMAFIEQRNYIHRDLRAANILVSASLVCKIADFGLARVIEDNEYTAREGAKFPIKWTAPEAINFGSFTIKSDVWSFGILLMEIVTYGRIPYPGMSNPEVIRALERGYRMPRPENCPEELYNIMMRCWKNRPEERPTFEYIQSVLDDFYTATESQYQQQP
Sequence of Grb2 SH2 (P62993 whole entry, looked up): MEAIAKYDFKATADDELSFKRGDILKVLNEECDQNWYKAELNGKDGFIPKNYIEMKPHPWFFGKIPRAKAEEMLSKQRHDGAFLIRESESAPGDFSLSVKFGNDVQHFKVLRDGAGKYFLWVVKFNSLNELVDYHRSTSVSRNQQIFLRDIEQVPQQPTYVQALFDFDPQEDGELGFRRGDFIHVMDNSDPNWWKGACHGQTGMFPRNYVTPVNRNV
Sequence of Fyn (P06241 whole entry, looked up): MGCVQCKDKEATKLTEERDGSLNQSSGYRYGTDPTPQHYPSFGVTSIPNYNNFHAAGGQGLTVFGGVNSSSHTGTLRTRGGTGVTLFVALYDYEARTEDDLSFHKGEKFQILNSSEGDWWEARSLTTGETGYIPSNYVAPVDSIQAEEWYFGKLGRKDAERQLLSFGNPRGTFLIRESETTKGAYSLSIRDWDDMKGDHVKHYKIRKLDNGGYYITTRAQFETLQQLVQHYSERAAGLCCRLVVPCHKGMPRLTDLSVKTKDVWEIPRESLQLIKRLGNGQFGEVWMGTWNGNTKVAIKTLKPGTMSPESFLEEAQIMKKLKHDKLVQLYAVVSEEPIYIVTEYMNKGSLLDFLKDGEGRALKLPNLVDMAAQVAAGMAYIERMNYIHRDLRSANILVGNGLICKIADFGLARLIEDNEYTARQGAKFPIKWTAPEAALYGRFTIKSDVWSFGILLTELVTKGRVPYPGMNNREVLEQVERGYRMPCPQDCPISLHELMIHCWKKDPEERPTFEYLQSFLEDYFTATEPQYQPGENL
Sequence of Fes (P07332 whole entry, looked up): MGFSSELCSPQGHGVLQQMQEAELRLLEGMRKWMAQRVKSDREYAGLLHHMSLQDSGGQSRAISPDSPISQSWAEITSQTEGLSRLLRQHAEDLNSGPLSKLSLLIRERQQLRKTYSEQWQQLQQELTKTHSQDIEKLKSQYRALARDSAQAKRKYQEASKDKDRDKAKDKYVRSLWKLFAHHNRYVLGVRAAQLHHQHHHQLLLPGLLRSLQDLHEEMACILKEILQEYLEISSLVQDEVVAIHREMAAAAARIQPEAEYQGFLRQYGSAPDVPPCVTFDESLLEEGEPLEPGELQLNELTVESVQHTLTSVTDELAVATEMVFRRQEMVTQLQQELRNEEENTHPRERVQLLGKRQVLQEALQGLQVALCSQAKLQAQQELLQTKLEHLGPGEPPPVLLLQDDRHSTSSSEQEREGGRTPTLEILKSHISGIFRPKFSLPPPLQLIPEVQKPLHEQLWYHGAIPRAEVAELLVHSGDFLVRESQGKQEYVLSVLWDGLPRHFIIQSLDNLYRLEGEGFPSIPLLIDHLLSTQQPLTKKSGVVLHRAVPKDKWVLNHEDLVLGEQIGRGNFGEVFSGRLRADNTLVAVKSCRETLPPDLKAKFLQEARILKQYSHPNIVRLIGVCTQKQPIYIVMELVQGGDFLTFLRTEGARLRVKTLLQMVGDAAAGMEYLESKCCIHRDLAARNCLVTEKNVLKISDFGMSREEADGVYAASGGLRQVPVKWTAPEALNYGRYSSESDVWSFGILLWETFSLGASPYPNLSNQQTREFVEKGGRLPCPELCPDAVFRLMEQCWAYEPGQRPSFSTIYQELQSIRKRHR
Sequence of Jak2 (O60674 whole entry, looked up): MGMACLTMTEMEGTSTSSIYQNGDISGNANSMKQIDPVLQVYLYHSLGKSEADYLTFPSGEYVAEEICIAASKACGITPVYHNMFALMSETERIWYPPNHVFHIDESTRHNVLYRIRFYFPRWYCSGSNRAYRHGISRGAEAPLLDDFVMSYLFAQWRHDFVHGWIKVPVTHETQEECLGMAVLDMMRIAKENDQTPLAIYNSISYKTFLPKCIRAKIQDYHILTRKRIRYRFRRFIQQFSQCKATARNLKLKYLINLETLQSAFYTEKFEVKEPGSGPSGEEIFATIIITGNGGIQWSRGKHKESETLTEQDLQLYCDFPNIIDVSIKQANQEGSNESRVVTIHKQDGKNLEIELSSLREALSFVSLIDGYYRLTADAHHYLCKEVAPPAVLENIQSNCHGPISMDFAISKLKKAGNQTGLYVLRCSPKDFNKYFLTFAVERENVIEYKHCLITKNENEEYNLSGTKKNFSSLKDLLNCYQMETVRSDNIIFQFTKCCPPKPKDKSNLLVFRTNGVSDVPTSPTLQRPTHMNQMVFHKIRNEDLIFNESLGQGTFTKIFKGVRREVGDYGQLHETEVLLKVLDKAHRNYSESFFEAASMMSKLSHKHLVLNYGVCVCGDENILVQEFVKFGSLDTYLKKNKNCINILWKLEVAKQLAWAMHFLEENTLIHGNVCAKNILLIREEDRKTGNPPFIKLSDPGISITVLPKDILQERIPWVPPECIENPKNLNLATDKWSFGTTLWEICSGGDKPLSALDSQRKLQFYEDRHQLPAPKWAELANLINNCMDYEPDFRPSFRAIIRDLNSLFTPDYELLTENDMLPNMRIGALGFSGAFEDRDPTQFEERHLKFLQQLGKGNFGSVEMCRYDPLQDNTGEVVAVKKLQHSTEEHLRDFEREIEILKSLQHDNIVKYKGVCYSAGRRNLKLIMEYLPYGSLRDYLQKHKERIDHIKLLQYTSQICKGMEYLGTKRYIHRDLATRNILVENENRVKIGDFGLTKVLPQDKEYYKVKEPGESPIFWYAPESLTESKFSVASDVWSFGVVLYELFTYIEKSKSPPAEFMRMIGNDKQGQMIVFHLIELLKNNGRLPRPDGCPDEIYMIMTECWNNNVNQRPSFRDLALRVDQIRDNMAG
Sequence of FGFR1 (P11362 whole entry, looked up): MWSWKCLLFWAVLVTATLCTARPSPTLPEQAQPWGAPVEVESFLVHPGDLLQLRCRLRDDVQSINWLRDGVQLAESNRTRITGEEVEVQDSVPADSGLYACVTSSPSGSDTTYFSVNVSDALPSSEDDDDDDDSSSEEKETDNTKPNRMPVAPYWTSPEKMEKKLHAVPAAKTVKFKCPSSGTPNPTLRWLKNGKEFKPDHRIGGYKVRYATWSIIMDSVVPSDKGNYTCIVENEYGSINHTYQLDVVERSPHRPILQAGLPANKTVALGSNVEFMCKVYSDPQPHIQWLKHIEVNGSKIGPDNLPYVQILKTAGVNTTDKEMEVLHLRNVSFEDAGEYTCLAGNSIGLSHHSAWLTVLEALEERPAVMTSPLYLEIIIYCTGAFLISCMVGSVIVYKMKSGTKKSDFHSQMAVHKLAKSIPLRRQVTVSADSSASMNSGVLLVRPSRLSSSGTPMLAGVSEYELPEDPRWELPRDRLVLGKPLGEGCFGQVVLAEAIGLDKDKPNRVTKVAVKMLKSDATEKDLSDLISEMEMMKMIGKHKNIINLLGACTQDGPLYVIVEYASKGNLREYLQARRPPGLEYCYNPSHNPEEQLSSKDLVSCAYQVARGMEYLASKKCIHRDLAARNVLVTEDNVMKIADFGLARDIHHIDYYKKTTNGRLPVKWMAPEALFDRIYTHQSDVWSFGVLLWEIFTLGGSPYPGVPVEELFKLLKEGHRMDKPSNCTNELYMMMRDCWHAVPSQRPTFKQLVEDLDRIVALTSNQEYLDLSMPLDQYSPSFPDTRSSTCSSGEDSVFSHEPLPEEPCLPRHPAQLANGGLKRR
Sequence of FGFR3 (P22607 whole entry, looked up): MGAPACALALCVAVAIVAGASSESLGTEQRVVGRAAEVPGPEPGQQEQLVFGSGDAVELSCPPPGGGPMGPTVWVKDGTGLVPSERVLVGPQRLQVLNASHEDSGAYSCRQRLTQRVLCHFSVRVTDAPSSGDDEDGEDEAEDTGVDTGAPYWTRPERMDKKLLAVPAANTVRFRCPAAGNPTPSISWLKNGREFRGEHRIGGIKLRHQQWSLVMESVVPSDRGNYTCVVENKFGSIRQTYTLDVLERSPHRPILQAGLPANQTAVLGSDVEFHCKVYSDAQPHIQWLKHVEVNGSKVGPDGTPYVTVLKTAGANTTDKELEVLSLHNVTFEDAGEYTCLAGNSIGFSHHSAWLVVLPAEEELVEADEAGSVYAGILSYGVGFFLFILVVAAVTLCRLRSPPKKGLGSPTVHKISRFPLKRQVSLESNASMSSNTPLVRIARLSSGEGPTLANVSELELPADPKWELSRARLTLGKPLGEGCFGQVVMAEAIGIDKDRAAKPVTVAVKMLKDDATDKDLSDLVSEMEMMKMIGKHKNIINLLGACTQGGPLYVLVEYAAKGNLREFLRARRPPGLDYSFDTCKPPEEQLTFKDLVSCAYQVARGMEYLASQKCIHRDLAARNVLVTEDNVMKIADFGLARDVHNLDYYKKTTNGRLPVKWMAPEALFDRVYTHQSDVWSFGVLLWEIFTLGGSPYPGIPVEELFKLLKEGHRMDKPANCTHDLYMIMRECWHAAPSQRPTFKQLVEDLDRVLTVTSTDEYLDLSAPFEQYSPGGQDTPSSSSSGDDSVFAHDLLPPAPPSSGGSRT

| Sequence | SH2 binding enrichment [1] | SH2 binding enrichment [2] | SH2 binding enrichment [3] | phosphorylation enrichment [4] | phosphorylation enrichment [5] | phosphorylation enrichment [6] | phosphorylation enrichment [7] | phosphorylation enrichment [8] | phosphorylation enrichment [9] | phosphorylation enrichment [10] | phosphorylation enrichment [11] | phosphorylation enrichment [12] | phosphorylation enrichment [13] | phosphorylation enrichment [14] | phosphorylation enrichment [15] | phosphorylation enrichment [16] |
| --- | --- | --- | --- | --- | --- | --- | --- | --- | --- | --- | --- | --- | --- | --- | --- | --- |
| RHPYFYAPELL [ALB_Y174] | 0.796 | 1.34 | 0.891 | 0.694 | 1.13 | 10.8 | 0.762 | 0.776 | 0.564 | 0.517 | 12.7 | 0.474 | 1.38 | 0.622 | 1.19 | 0.476 |
| RIFDYYSARKT [STOX1_Y858_A863T] | 0.534 | 0.701 | 0.849 | 0.259 | 1.18 | 0.48 | 0.439 | 0.473 | 0.521 | 0.402 | 0.503 | 0.982 | 0.531 | 1.37 | 0.665 | 0.441 |
| RKGGSYTQAAS [HLA-A_Y344] | 1.06 | 1.07 | 0.584 | 0.902 | 0.637 | 0.563 | 0.399 | 0.384 | 0.446 | 0.465 | 0.442 | 0.443 | 0.631 | 0.461 | 0.885 | 0.699 |
| RKLASYRSCLL [DHX37_Y1080] | 0.861 | 1.04 | 1.04 | 0.627 | 0.633 | 0.617 | 0.492 | 0.486 | 0.321 | 0.515 | 0.581 | 0.468 | 0.75 | 0.356 | 0.811 | 0.768 |
| RKLVDYNSARH [BIN1_Y150_D151N] | 0.686 | 0.972 | 0.814 | 0.548 | 0.425 | 0.326 | 0.338 | 0.378 | 0.311 | 0.389 | 0.376 | 0.383 | 0.559 | 0.393 | 0.568 | 0.419 |
| RLAKTYETTLE [ALB_Y377] | 0.473 | 0.834 | 0.569 | 0.955 | 1.09 | 0.895 | 0.855 | 0.758 | 0.555 | 0.752 | 0.711 | 0.622 | 0.86 | 0.596 | 1.39 | 0.721 |
| RLEKEYFDQHF [NPC1_Y394] | 0.604 | 0.865 | 0.821 | 0.795 | 1.44 | 0.959 | 0.707 | 0.571 | 0.717 | 0.341 | 1.39 | 0.665 | 1.13 | 0.631 | 1.29 | 0.5 |
| RLLRGHDQYAY [HLA-B_Y137] | 1.29 | 1.19 | 1.37 | 0.496 | 0.56 | 0.851 | 0.763 | 0.456 | 0.673 | 0.57 | 0.69 | 0.6 | 0.672 | 0.473 | 0.808 | 0.467 |
| RLLVVYSWTQR [HBB_Y36_P37S] | 1.31 | 1.57 | 1.21 | 1 | 1.37 | 0.91 | 0.593 | 0.872 | 1.04 | 0.864 | 0.783 | 0.698 | 1.47 | 1.05 | 1.57 | 0.565 |
| RLPNGYGLAFR [DLK1_Y262_S260N_YF] | 0.699 | 0.988 | 0.932 | 0.694 | 0.587 | 0.858 | 0.707 | 0.616 | 0.737 | 0.649 | 0.684 | 0.62 | 1.5 | 0.51 | 1.06 | 0.737 |
| RLSELYLRRNP [CFAP410_Y68_R73P] | 0.352 | 0.633 | 0.303 | 0.555 | 0.659 | 0.533 | 0.477 | 0.317 | 0.372 | 0.407 | 0.381 | 0.631 | 0.813 | 0.377 | 0.83 | 0.249 |
| RNFGTYTAGLS [RHBDD1_Y264_D262G_YF] | 0.437 | 0.631 | 0.684 | 0.445 | 0.315 | 1.07 | 0.477 | 0.517 | 0.377 | 0.441 | 0.483 | 0.657 | 0.702 | 0.302 | 0.495 | 0.798 |
| RPDSPYSRLHD [DOK2_Y271_P274L] | 2.87 | 0.796 | 1.1 | 0.957 | 3.09 | 0.657 | 0.467 | 0.884 | 0.471 | 0.464 | 0.552 | 0.614 | 0.916 | 0.85 | 0.983 | 0.65 |
| RREWYYEVIIA [BACE1_Y260_V265A] | 0.415 | 0.673 | 0.55 | 0.542 | 1.26 | 2.9 | 0.442 | 0.926 | 0.539 | 0.462 | 4.47 | 0.513 | 1.3 | 1.52 | 0.733 | 0.764 |
| RRGTRYMFSRP [RPL21_Y13] | 0.483 | 0.599 | 0.746 | 0.971 | 0.625 | 0.554 | 0.768 | 0.922 | 0.782 | 0.829 | 0.859 | 0.853 | 0.952 | 0.837 | 0.594 | 0.887 |
| RRIHCYRGHLW [VHL_Y112_S111C] | 0.583 | 0.722 | 0.568 | 0.527 | 0.702 | 0.56 | 0.524 | 0.62 | 0.49 | 0.465 | 0.475 | 0.483 | 0.626 | 0.556 | 1.17 | 0.66 |
| RRIHSYRGQLW [VHL_Y112_H115Q] | 0.343 | 0.637 | 0.45 | 0.906 | 0.925 | 0.596 | 0.438 | 0.776 | 0.491 | 0.883 | 0.536 | 0.664 | 1.25 | 0.535 | 0.813 | 0.617 |

| Sequence | SH2 binding enrichment [1] | SH2 binding enrichment [2] | SH2 binding enrichment [3] | phosphorylation enrichment [4] | phosphorylation enrichment [5] | phosphorylation enrichment [6] | phosphorylation enrichment [7] | phosphorylation enrichment [8] | phosphorylation enrichment [9] | phosphorylation enrichment [10] | phosphorylation enrichment [11] | phosphorylation enrichment [12] | phosphorylation enrichment [13] | phosphorylation enrichment [14] | phosphorylation enrichment [15] | phosphorylation enrichment [16] |
| --- | --- | --- | --- | --- | --- | --- | --- | --- | --- | --- | --- | --- | --- | --- | --- | --- |
| RRIHSYRGRLW [VHL_Y112_H115R] | 0.372 | 0.967 | 0.561 | 0.836 | 0.68 | 0.811 | 0.641 | 0.7 | 0.865 | 0.547 | 0.733 | 0.754 | 0.956 | 0.538 | 0.771 | 0.637 |
| RRNEEYCLLAS [ITK_Y198_D202A] | 0.627 | 1.11 | 0.498 | 0.522 | 0.741 | 0.977 | 0.72 | 0.57 | 1.55 | 0.536 | 0.888 | 0.84 | 0.976 | 0.703 | 0.924 | 0.594 |
| RRVEPYGENFN [APOA4_Y310] | 0.513 | 0.687 | 0.588 | 0.707 | 0.965 | 0.655 | 0.385 | 0.643 | 0.521 | 0.487 | 0.421 | 0.45 | 1.23 | 0.561 | 1.2 | 0.542 |
| RRVLVYRGRGA [QDPR_Y16_G17R] | 0.425 | 0.71 | 0.5 | 0.829 | 0.692 | 0.779 | 0.714 | 0.754 | 0.818 | 0.712 | 0.758 | 0.782 | 0.963 | 0.708 | 0.991 | 0.618 |
| RSDEDYLYREE [POR_Y573] | 0.435 | 0.738 | 0.748 | 0.813 | 1.48 | 1.16 | 0.854 | 0.56 | 0.756 | 0.761 | 0.784 | 0.827 | 1.32 | 0.52 | 1.54 | 0.559 |
| RSGNCYLDIRP [FBN1_Y1535] | 0.615 | 0.688 | 0.782 | 1.04 | 1.45 | 0.728 | 0.7 | 0.583 | 0.58 | 0.567 | 0.802 | 0.544 | 1.06 | 0.633 | 1.27 | 0.514 |
| RSYSPCDYQPC [TNS1_Y796_Y796C] | 1.17 | 0.759 | 0.421 | 0.457 | 0.533 | 1.28 | 8.45 | 1.56 | 17.1 | 0.554 | 2.76 | 0.777 | 1.12 | 0.726 | 0.935 | 0.544 |
| RVQKRYILDNV [RCN1_Y115_F117L] | 0.454 | 0.804 | 0.553 | 0.384 | 0.487 | 0.327 | 0.234 | 0.409 | 0.176 | 0.372 | 0.326 | 0.366 | 0.494 | 0.367 | 0.463 | 0.337 |
| SAGSSYSISVI [PAX5_Y179_G183V] | 0.62 | 0.856 | 0.686 | 0.807 | 0.835 | 0.752 | 0.712 | 0.48 | 0.553 | 0.688 | 0.485 | 0.539 | 0.986 | 0.472 | 0.975 | 0.572 |
| SARSAYQEAMD [SFN_Y151] | 1.06 | 0.766 | 0.713 | 0.628 | 0.638 | 0.539 | 0.584 | 0.353 | 0.474 | 0.495 | 0.418 | 0.445 | 0.81 | 0.38 | 0.854 | 0.402 |
| SASQEYHIVKK [PDZD2_Y557] | 0.792 | 0.78 | 0.893 | 0.697 | 0.572 | 0.538 | 0.527 | 0.441 | 0.512 | 0.422 | 0.905 | 0.513 | 0.779 | 0.507 | 0.676 | 0.48 |
| SAVTGYRVNVI [FN1_Y937_D940N] | 0.505 | 0.95 | 0.823 | 0.415 | 0.634 | 0.488 | 0.407 | 0.386 | 0.407 | 0.403 | 0.391 | 0.399 | 0.633 | 0.359 | 0.752 | 0.434 |
| SDGKRYRVPSD [HHIPL2_Y395_H391D] | 0.57 | 0.781 | 0.608 | 0.44 | 0.771 | 0.426 | 0.303 | 0.384 | 0.357 | 0.338 | 0.377 | 0.346 | 0.555 | 0.409 | 0.522 | 0.408 |
| SDVCMYRKNTY [SYNE2_Y570_I574T] | 0.47 | 0.796 | 0.592 | 0.684 | 0.67 | 0.695 | 0.519 | 0.377 | 0.477 | 0.405 | 0.429 | 0.487 | 0.76 | 0.403 | 0.905 | 0.401 |
| SECCKYKTDNP [OSMR_Y689_I691T] | 0.48 | 0.852 | 0.901 | 0.587 | 0.725 | 0.655 | 0.413 | 0.443 | 0.472 | 0.375 | 0.51 | 0.452 | 0.66 | 0.492 | 0.752 | 0.387 |
| SETSRYLSDLF [KCNJ3_Y67] | 0.543 | 0.942 | 0.989 | 0.844 | 1.17 | 0.627 | 0.562 | 0.549 | 0.726 | 0.504 | 0.544 | 0.515 | 0.963 | 0.485 | 1.21 | 0.555 |
